Data taken from patent US11230581B2, “Peptides and combination of peptides for use in immunotherapy against ovarian cancer and other cancers” (Immatics Biotechnologies GmbH, priority 2015, dated 2022).

Each substance was assayed against HLA-A*02:01 (Homo sapiens, UniProt P04439, D140Y/D185E/D98H/E176V/E277Q/G131W/G231S/I119V/I121R/I166T/I218V/L300P/L318F/N151K/N90K/P208A/P217A/Q86G/Q94H/R138H/R169H/T345S) (assay: MHC binding assay (UV-ligand exchange, β2m ELISA, peptide exchange yield)). Settings: binding of HLA-class I restricted peptides to HLA-A*02:01, UV-ligand exchange.
In short: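 Yield of stabilized complexes quantified via the β2m light chain in an ELISA (streptavidin capture, 100-fold diluted monomers, HRP anti-β2m 2 ug/ml at 37 °C, TMB, A450). The complexes come from UV-triggered replacement of a photocleavable ligand by the candidate peptide.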

Substance	Peptide exchange (MHC class I binding score, peptide exchange yield)
305 (SIANFSEFYV; listed as Homo sapiens) [compound 305]	“++++” (≥75% = ++++)
398 (KLLEEDGTIITL; listed as Homo sapiens) [compound 398]	“++” (≥20% = ++)
141 (YLDFSNNRL; listed as Homo sapiens) [compound 141]	“++” (≥20% = ++)
19 (FMVDNEAIYDI; listed as Homo sapiens) [compound 19]	“++++” (≥75% = ++++)
481 (GLIEDYEALL; listed as Homo sapiens) [compound 481]	“+++” (≥50 = +++)
179 (KVLNELYTV; listed as Homo sapiens) [compound 179]	“+++” (≥50 = +++)
505 (SLAPGDVVRQV; listed as Homo sapiens) [compound 505]	“++” (≥20% = ++)
623 (YLVEDIQHI; listed as Homo sapiens) [compound 623]	“+++” (≥50 = +++)
593 (GLPRFGIEMV; listed as Homo sapiens) [compound 593]	“+++” (≥50 = +++)
609 (ALWKQLLEL; listed as Homo sapiens) [compound 609]	“+++” (≥50 = +++)
467 (FLAKDFNFL; listed as Homo sapiens) [compound 467]	“+++” (≥50 = +++)
473 (AMATESILHFA; listed as Homo sapiens) [compound 473]	“+++” (≥50 = +++)
440 (ALADGVTMQV; listed as Homo sapiens) [compound 440]	“++” (≥20% = ++)
60 (SLTIDGIYYV; listed as Homo sapiens) [compound 60]	“++++” (≥75% = ++++)
79 (SLFIGEKAVLL; listed as Homo sapiens) [compound 79]	“+++” (≥50 = +++)
103 (TLAEEVVAL; listed as Homo sapiens) [compound 103]	“+++” (≥50 = +++)
31 (YLAPELFVNV; listed as Homo sapiens) [compound 31]	“++” (≥20% = ++)
507 (KLIDDQDISISL; listed as Homo sapiens) [compound 507]	“+++” (≥50 = +++)
172 (VLYSYTIITV; listed as Homo sapiens) [compound 172]	“++” (≥20% = ++)
543 (GLLPTPITQQASL; listed as Homo sapiens) [compound 543]	“+++” (≥50 = +++)
26 (ALLELAEEL; listed as Homo sapiens) [compound 26]	“+++” (≥50 = +++)
40 (TLLVKVFSV; listed as Homo sapiens) [compound 40]	“+++” (≥50 = +++)

Substance	Peptide exchange (MHC class I binding score, peptide exchange yield)
124 (ALYETELADA; listed as Homo sapiens) [compound 124]	“++” (≥20% = ++)
34 (ILVEADSLWVV; listed as Homo sapiens) [compound 34]	“+++” (≥50 = +++)
369 (GLFPEHLIDV; listed as Homo sapiens) [compound 369]	“+++” (≥50 = +++)
429 (GLVNDLARV; listed as Homo sapiens) [compound 429]	“++” (≥20% = ++)
117 (ILPDGEDFLAV; listed as Homo sapiens) [compound 117]	“+++” (≥50 = +++)
563 (WLLPYNGVTV; listed as Homo sapiens) [compound 563]	“+++” (≥50 = +++)
592 (RLLSAAENFL; listed as Homo sapiens) [compound 592]	“+++” (≥50 = +++)
13 (YLMDESLNL; listed as Homo sapiens) [compound 13]	“+++” (≥50 = +++)
36 (YVLEDLEVTV; listed as Homo sapiens) [compound 36]	“++” (≥20% = ++)
222 (NLIENVQRL; listed as Homo sapiens) [compound 222]	“++” (≥20% = ++)
526 (RLAEVGQYEQV; listed as Homo sapiens) [compound 526]	“++” (≥20% = ++)
476 (ALMERTGYSMV; listed as Homo sapiens) [compound 476]	“+++” (≥50 = +++)
91 (IMQDFPAEIFL; listed as Homo sapiens) [compound 91]	“++++” (≥75% = ++++)
104 (STMEQNFLL; listed as Homo sapiens) [compound 104]	“++++” (≥75% = ++++)
128 (YLFDDPLSAV; listed as Homo sapiens) [compound 128]	“++” (≥20% = ++)
87 (ALPEAPAPLLPHIT; listed as Homo sapiens) [compound 87]	“++” (≥20% = ++)
120 (ALLGIPLTLV; listed as Homo sapiens) [compound 120]	“+++” (≥50 = +++)
601 (SAFPFPVTV; listed as Homo sapiens) [compound 601]	“+++” (≥50 = +++)
349 (SLTEYLQNV; listed as Homo sapiens) [compound 349]	“++++” (≥75% = ++++)
263 (LLVSNLDFGV; listed as Homo sapiens) [compound 263]	“+++” (≥50 = +++)
272 (ALGNTVPAV; listed as Homo sapiens) [compound 272]	“+++” (≥50 = +++)
354 (LILEGVDTV; listed as Homo sapiens) [compound 354]	“++” (≥20% = ++)

Substance	Peptide exchange (MHC class I binding score, peptide exchange yield)
243 (LLLNELPSV; listed as Homo sapiens) [compound 243]	“+++” (≥50 = +++)
262 (LLWGDLIWL; listed as Homo sapiens) [compound 262]	“+++” (≥50 = +++)
28 (QLLDETSAITL; listed as Homo sapiens) [compound 28]	“+++” (≥50 = +++)
571 (LLLTTIPQI; listed as Homo sapiens) [compound 571]	“+++” (≥50 = +++)
44 (ILDPISSGFLL; listed as Homo sapiens) [compound 44]	“++” (≥20% = ++)
211 (LLWPGAALL; listed as Homo sapiens) [compound 211]	“++” (≥20% = ++)
544 (LLWDVPAPSL; listed as Homo sapiens) [compound 544]	“+++” (≥50 = +++)
209 (KLIESKHEV; listed as Homo sapiens) [compound 209]	“++” (≥20% = ++)
466 (VLIANLEKL; listed as Homo sapiens) [compound 466]	“++++” (≥75% = ++++)
619 (ALQDRVPLA; listed as Homo sapiens) [compound 619]	“+++” (≥50 = +++)
528 (SVAEGRALMSV; listed as Homo sapiens) [compound 528]	“+++” (≥50 = +++)
251 (ALYTGFSILV; listed as Homo sapiens) [compound 251]	“++” (≥20% = ++)
189 (ALQRKLPYV; listed as Homo sapiens) [compound 189]	“+++” (≥50 = +++)
599 (YLLNDASLISV; listed as Homo sapiens) [compound 599]	“+++” (≥50 = +++)
484 (SLIEKVTQL; listed as Homo sapiens) [compound 484]	“+++” (≥50 = +++)
450 (FMIDASVHPTL; listed as Homo sapiens) [compound 450]	“+++” (≥50 = +++)
136 (YLADPSNLFVV; listed as Homo sapiens) [compound 136]	“+++” (≥50 = +++)
558 (GLLENIPRV; listed as Homo sapiens) [compound 558]	“+++” (≥50 = +++)
204 (KIAENVEEV; listed as Homo sapiens) [compound 204]	“++” (≥20% = ++)
280 (VLPDPEVLEAV; listed as Homo sapiens) [compound 280]	“+++” (≥50 = +++)
347 (SLFKHDPAAWEA; listed as Homo sapiens) [compound 347]	“++++” (≥75% = ++++)
339 (GLWEIENNPTVKA; listed as Homo sapiens) [compound 339]	“++++” (≥75% = ++++)
